T1: single chain homotrimeric mouse LIGHT extracellular domain (G73-V239), N-terminal HHHHHHGG, joined by two … (mouse, UniProt Q9QYH9 73-239)
T1 construct: Soluble analyte of the Octet assay; from Expi293 cells; also called mLIGHT
T1 sequence: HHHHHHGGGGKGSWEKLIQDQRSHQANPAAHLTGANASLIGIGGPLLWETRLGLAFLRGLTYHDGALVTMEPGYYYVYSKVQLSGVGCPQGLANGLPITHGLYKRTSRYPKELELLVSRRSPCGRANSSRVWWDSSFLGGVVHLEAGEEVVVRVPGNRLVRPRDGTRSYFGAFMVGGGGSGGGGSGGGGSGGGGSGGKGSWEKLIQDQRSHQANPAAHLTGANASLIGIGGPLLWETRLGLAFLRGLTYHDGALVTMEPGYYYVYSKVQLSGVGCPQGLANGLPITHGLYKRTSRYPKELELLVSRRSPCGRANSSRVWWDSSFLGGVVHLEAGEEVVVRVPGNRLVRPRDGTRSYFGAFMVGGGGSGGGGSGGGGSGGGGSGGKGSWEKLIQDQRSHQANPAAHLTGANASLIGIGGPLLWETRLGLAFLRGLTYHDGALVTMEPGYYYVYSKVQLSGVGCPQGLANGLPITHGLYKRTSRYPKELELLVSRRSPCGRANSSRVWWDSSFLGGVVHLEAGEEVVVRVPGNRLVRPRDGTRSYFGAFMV

T2: mouse CD160 residues I30-H154 with C-terminal …, refolded from E. coli inclusion bodies (mouse, UniProt O88875 30-154, biotin (mCD160-biotin in the cell staining assay; site not stated))
T2 construct: range 30-154; also called mCD160; mCD160-biotin
T2 sequence: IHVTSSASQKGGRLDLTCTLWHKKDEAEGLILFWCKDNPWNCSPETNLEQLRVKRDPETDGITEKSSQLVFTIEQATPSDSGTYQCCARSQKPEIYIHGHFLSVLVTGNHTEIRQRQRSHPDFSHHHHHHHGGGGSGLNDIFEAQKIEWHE

T3: mouse BTLA, soluble protein (analyte of the Octet assay) (mouse, UniProt Q7TSA3 30-183, limits assumed)
T3 construct: The construct is not described; also called mBTLA; mBTLA-penta-His-tag
T3 sequence (looked up): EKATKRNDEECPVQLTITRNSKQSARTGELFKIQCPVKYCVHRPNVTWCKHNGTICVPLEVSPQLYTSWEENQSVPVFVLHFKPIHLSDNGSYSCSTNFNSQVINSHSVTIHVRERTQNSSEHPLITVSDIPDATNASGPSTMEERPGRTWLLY

T4: mouse LIGHT, full length, on transfected cells (mouse, UniProt Q9QYH9 1-239)
T4 construct: whole, on cells; also called mLIGHT; mLIGHT-IRES-EGFP
T4 sequence (looked up): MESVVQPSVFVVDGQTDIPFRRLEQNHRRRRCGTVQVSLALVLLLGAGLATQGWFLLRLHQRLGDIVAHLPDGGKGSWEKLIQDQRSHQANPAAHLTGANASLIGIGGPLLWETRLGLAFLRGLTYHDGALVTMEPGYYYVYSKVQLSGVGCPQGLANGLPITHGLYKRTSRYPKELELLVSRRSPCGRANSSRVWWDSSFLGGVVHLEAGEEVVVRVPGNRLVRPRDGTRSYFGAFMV

T5: mouse BTLA, full length, fused to EGFP, on HEK293 FreeStyle cells (mouse, UniProt Q7TSA3 30-306)
T5 construct: whole, on cells; also called mBTLA; mBTLA-EGFP; not shown: EGFP fused at the C-terminus (pEGFP-N1 vector)
T5 sequence (looked up): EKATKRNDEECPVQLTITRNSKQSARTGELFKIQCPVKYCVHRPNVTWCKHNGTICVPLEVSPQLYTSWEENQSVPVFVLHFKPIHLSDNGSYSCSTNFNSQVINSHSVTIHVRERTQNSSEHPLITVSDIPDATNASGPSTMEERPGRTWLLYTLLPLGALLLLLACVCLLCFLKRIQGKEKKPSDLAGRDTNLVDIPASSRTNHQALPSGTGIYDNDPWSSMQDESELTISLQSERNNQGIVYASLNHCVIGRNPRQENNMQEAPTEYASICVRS

B1: mouse HVEM (Q39-Q206), wild type, fused to human IgG1 and a hexa-His tag (Fc fusion)
chain (part 1 of 2): QPSCRQEEFLVGDECCPMCNPGYHVKQVCSEHTGTVCAPCPPQTYTAHANGLSKCLPCGVCDPDMGLLTWQECSSWKDTVCRCIPGYFCENQDGSHCSTCLQHTTCPPGQRVEKRGTHDQDTVCADCLTGTFSLGGTQEECLPWTNCSAFQQEVRRGTNSTDTTCSSQ
chain (part 2 of 2): HHHHHH
notes: From Expi293 cells; also called mHVEM-hIgG1; mHVEMWT; not shown: human IgG1
B2: mouse HVEM (Q39-Q206) G72R-V74A fused to human IgG1 and a hexa-His tag, soluble form (Fc fusion)
chain (part 1 of 2): QPSCRQEEFLVGDECCPMCNPGYHVKQVCSEHTRTACAPCPPQTYTAHANGLSKCLPCGVCDPDMGLLTWQECSSWKDTVCRCIPGYFCENQDGSHCSTCLQHTTCPPGQRVEKRGTHDQDTVCADCLTGTFSLGGTQEECLPWTNCSAFQQEVRRGTNSTDTTCSSQ
chain (part 2 of 2): HHHHHH
notes: also called mHVEM^-BT/160; mHVEM-BT/160; not shown: human IgG1
B3: mouse HVEM G72D, full length, fused to mCherry, on cells (receptor)
chain: QPSCRQEEFLVGDECCPMCNPGYHVKQVCSEHTDTVCAPCPPQTYTAHANGLSKCLPCGVCDPDMGLLTWQECSSWKDTVCRCIPGYFCENQDGSHCSTCLQHTTCPPGQRVEKRGTHDQDTVCADCLTGTFSLGGTQEECLPWTNCSAFQQEVRRGTNSTDTTCSSQVVYYVVSILLPLVIVGAGIAGFLICTRRHLHTSSVAKELEPFQEQQENTIRFPVTEVGFAETEEETASN
notes: also called mHVEM G72D; not shown: mCherry fused at the C-terminus (pmCherry-N1 vector)
B4: mouse HVEM G72R-V74A double mutein, full length, fused to mCherry, on cells (receptor)
chain: QPSCRQEEFLVGDECCPMCNPGYHVKQVCSEHTRTACAPCPPQTYTAHANGLSKCLPCGVCDPDMGLLTWQECSSWKDTVCRCIPGYFCENQDGSHCSTCLQHTTCPPGQRVEKRGTHDQDTVCADCLTGTFSLGGTQEECLPWTNCSAFQQEVRRGTNSTDTTCSSQVVYYVVSILLPLVIVGAGIAGFLICTRRHLHTSSVAKELEPFQEQQENTIRFPVTEVGFAETEEETASN
notes: also called mHVEM G72R-V74A; mHVEM^-BT/160; not shown: mCherry fused at the C-terminus (pmCherry-N1 vector)
B5: mouse HVEM L90A, full length, fused to mCherry, on cells (receptor)
chain: QPSCRQEEFLVGDECCPMCNPGYHVKQVCSEHTGTVCAPCPPQTYTAHANGASKCLPCGVCDPDMGLLTWQECSSWKDTVCRCIPGYFCENQDGSHCSTCLQHTTCPPGQRVEKRGTHDQDTVCADCLTGTFSLGGTQEECLPWTNCSAFQQEVRRGTNSTDTTCSSQVVYYVVSILLPLVIVGAGIAGFLICTRRHLHTSSVAKELEPFQEQQENTIRFPVTEVGFAETEEETASN
notes: also called mHVEM L90A; not shown: mCherry fused at the C-terminus (pmCherry-N1 vector)
B6: mouse HVEM H86D, full length, fused to mCherry, on cells (receptor)
chain: QPSCRQEEFLVGDECCPMCNPGYHVKQVCSEHTGTVCAPCPPQTYTADANGLSKCLPCGVCDPDMGLLTWQECSSWKDTVCRCIPGYFCENQDGSHCSTCLQHTTCPPGQRVEKRGTHDQDTVCADCLTGTFSLGGTQEECLPWTNCSAFQQEVRRGTNSTDTTCSSQVVYYVVSILLPLVIVGAGIAGFLICTRRHLHTSSVAKELEPFQEQQENTIRFPVTEVGFAETEEETASN
notes: also called mHVEM H86D; not shown: mCherry fused at the C-terminus (pmCherry-N1 vector)
B7: mouse HVEM M56D, full length, fused to mCherry, on cells (receptor)
chain: QPSCRQEEFLVGDECCPDCNPGYHVKQVCSEHTGTVCAPCPPQTYTAHANGLSKCLPCGVCDPDMGLLTWQECSSWKDTVCRCIPGYFCENQDGSHCSTCLQHTTCPPGQRVEKRGTHDQDTVCADCLTGTFSLGGTQEECLPWTNCSAFQQEVRRGTNSTDTTCSSQVVYYVVSILLPLVIVGAGIAGFLICTRRHLHTSSVAKELEPFQEQQENTIRFPVTEVGFAETEEETASN
notes: also called mHVEM M56D; not shown: mCherry fused at the C-terminus (pmCherry-N1 vector)
B8: mouse HVEM L94A, full length, fused to mCherry, on cells (receptor)
chain: QPSCRQEEFLVGDECCPMCNPGYHVKQVCSEHTGTVCAPCPPQTYTAHANGLSKCAPCGVCDPDMGLLTWQECSSWKDTVCRCIPGYFCENQDGSHCSTCLQHTTCPPGQRVEKRGTHDQDTVCADCLTGTFSLGGTQEECLPWTNCSAFQQEVRRGTNSTDTTCSSQVVYYVVSILLPLVIVGAGIAGFLICTRRHLHTSSVAKELEPFQEQQENTIRFPVTEVGFAETEEETASN
notes: also called mHVEM L94A; not shown: mCherry fused at the C-terminus (pmCherry-N1 vector)
B9: mouse HVEM R43D, full length, fused to mCherry, on cells (receptor)
chain: QPSCDQEEFLVGDECCPMCNPGYHVKQVCSEHTGTVCAPCPPQTYTAHANGLSKCLPCGVCDPDMGLLTWQECSSWKDTVCRCIPGYFCENQDGSHCSTCLQHTTCPPGQRVEKRGTHDQDTVCADCLTGTFSLGGTQEECLPWTNCSAFQQEVRRGTNSTDTTCSSQVVYYVVSILLPLVIVGAGIAGFLICTRRHLHTSSVAKELEPFQEQQENTIRFPVTEVGFAETEEETASN
notes: also called mHVEM R43D; not shown: mCherry fused at the C-terminus (pmCherry-N1 vector)
B10: mouse HVEM V74D, full length, fused to mCherry, on cells (receptor)
chain: QPSCRQEEFLVGDECCPMCNPGYHVKQVCSEHTGTDCAPCPPQTYTAHANGLSKCLPCGVCDPDMGLLTWQECSSWKDTVCRCIPGYFCENQDGSHCSTCLQHTTCPPGQRVEKRGTHDQDTVCADCLTGTFSLGGTQEECLPWTNCSAFQQEVRRGTNSTDTTCSSQVVYYVVSILLPLVIVGAGIAGFLICTRRHLHTSSVAKELEPFQEQQENTIRFPVTEVGFAETEEETASN
notes: also called mHVEM V74D; not shown: mCherry fused at the C-terminus (pmCherry-N1 vector)
B11: mouse HVEM L94D, full length, fused to mCherry, on cells (receptor)
chain: QPSCRQEEFLVGDECCPMCNPGYHVKQVCSEHTGTVCAPCPPQTYTAHANGLSKCDPCGVCDPDMGLLTWQECSSWKDTVCRCIPGYFCENQDGSHCSTCLQHTTCPPGQRVEKRGTHDQDTVCADCLTGTFSLGGTQEECLPWTNCSAFQQEVRRGTNSTDTTCSSQVVYYVVSILLPLVIVGAGIAGFLICTRRHLHTSSVAKELEPFQEQQENTIRFPVTEVGFAETEEETASN
notes: also called mHVEM L94D; not shown: mCherry fused at the C-terminus (pmCherry-N1 vector)

Legend:
[1] = molecular target: T1, single chain homotrimeric mouse LIGHT …; test: Octet bio-layer interferometry, mHVEM-hIgG1 on the sensor, LIGHT in solution
From the text: (§1) The results were exported and then analyzed using Prism 5 (GraphPad Software). Final response curves were generated after subtracting the responses of the control groups.

[2] = molecular target: T1, single chain homotrimeric mouse LIGHT …; test: Octet bio-layer interferometry, mHVEM-hIgG1 on the sensor, mLIGHT in solution
From the text: (§2) Error bars represent results from at least triplicates. […] Ligands BTLA, CD160 and LIGHT are modeled based on the HVEM structures and are shown as labeled surfaces.
as §1

[3] = molecular target: T2, mouse CD160 residues I30-H154 with …; test: Octet bio-layer interferometry, mHVEM-hIgG1 on the sensor, mCD160 in solution
From the text: as §2, §1

[4] = molecular target: T3, mouse BTLA, soluble protein (analyte of …); test: Octet bio-layer interferometry, mHVEM-hIgG1 on the sensor, mBTLA in solution
From the text: as §2, §1

[5] = molecular target: T4, mouse LIGHT, full length, on …; test: flow cytometry, cell-cell interaction assay
Experimental: (§3) After 2˜3 days, the cells were harvested and diluted to […]. […] These cells were further recorded and analyzed by flow cytometry. […] The cells were incubated for 30 min with shaking at room temperature and washed once by PBS containing 0.2% BSA (PBS-BSA). The cells were re-suspended in 100 uL of PBS-BSA and analyzed by flow cytometry.

[6] = molecular target: T2, mouse CD160 residues I30-H154 with …; test: cell-protein flow cytometry (mHVEM-mCherry cells + mCD160-biotin/streptavidin-AF488)
Experimental: as §3

[7] = molecular target: T5, mouse BTLA, full length, fused to EGFP, …; test: cell-cell flow cytometry (mHVEM-mCherry cells + mBTLA-EGFP cells)
Experimental: as §3

[8] = molecular target: T3, mouse BTLA, soluble protein (analyte of …); test: cell-protein flow cytometry (mHVEM-mCherry cells + mBTLA-His/anti-His green)
Experimental: as §3

[9] = molecular target: T4, mouse LIGHT, full length, on …; test: cell-cell flow cytometry (mHVEM-mCherry cells + mLIGHT-IRES-EGFP cells)
Experimental: as §3

[10] = molecular target: T5, mouse BTLA, full length, fused to EGFP, …; test: flow cytometry, cell-cell interaction assay
Experimental: as §3

Row | Binder | binding result [5] | binding result [10] | other results
1 | B1 | – | – | Kd [1]: 0.0162 µM; Kd [2]: 0.0162 µM
2 | B2 | – | – | Kd [1]: 0.0293 µM; Kd [2]: 0.0293 µM; binding result [3]: no binding; binding result [4]: no binding
3 | B3 | binds | – | –
4 | B4 | – | – | binding result [6]: no binding; binding result [7]: no binding; binding result [8]: no binding; binding result [9]: binds
5 | B5 | – | binds | –
6 | B6 | – | binds | –
7 | B7 | binds | binds | –
8 | B8 | – | binds | –
9 | B9 | binds | binds | –
10 | B10 | binds | – | –
11 | B11 | – | binds | –

Reference: patent US20250326817A1 (LA JOLLA INSTITUTE FOR IMMUNOLOGY, published 2025)
